Laboratory results taken from article PMC11286772, “Structural basis of antagonist selectivity in endothelin receptors” (Cell Discovery, 2024).
Residue numbers refer to the chain shown, from its start. Numbers in names are those of the source.

B1: ETA, wild type, as used in the size exclusion chromatography analysis with Fab301, P25101 E234A (protein)
chain: DNPERYSTNLSNHVDDFTTFRGTELSFLVTTHQPTNLVLPSNGSMHNYCPQQTKITSAFKYINTVISCTIFIVGMVGNATLLRIIYQNKCMRNGPNALIASLALGDLIYVVIDLPINVFKLLAGRWPFDHNDFGVFLCKLFPFLQKSSVGITVLNLCALSVDRYRAVASWSRVQGIGIPLVTAIEIVSIWILSFILAIPEAIGFVMVPFEYRGAQHKTCMLNATSKFMEFYQDVKDWWLFGFYFCMPLVCTAIFYTLMTCEMLNRRNGSLRIALSEHLKQRREVAKTVFCLVVIFALCWFPLHLSRILKKTVYNEMDKNRCELLSFLLLMDYIGINLATMNSCINPIALYFVSKKFKNCFQSCLCCCCYQSKSLMTSVPMNGTSIQWKNHDQNNHNTDRSSHKDSMN
B2: ETA, wild type, as used in the size exclusion chromatography analysis with Fab301, P25101 Y231A (protein)
chain: B1 chain with Y211A, A214E
B3: ETA, wild type, as used in the size exclusion chromatography analysis with Fab301, P25101 Q235A (protein)
chain: B1 chain with A214E, Q215A
B4: ETA, wild type, as used in the size exclusion chromatography analysis with Fab301, P25101 E230A (protein)
chain: B1 chain with E210A, A214E
B5: ETA, wild type, as used in the size exclusion chromatography analysis with Fab301, P25101 F229A (protein)
chain: B1 chain with F209A, A214E
B6: ETA, wild type, as used in the size exclusion chromatography analysis with Fab301, P25101 R232A (protein)
chain: B1 chain with R212A, A214E
B7: ETA, wild type, as used in the size exclusion chromatography analysis with Fab301, P25101 G233A (protein)
chain: B1 chain with G213A, A214E

molecular target: Fab301, Fab fragment of the anti-ETA monoclonal antibody Getagozumab; experiment: size exclusion chromatography; details: chain shown with the change;; parent: est. 0 min; read off a plot
Sequence (chain, as listed by the source, chain 1 of 2): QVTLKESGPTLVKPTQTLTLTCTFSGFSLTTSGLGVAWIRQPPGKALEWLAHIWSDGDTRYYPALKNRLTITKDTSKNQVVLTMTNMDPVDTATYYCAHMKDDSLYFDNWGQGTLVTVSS
Sequence (chain, as listed by the source, chain 2 of 2): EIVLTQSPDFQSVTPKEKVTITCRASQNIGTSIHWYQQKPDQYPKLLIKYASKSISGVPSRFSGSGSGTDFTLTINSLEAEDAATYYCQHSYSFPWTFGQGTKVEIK

other: Δt (SEC retention time of mutant–Fab301 complex minus WT–Fab301 complex) [min]	Binder
0.019	B1
0.039	B2
0.023	B3
0.026	B4
-0.004	B5
0.054	B6
0.056	B7
